Data: PMC5605669

Biological target: APOBEC3G, wild type (human), Q9HC16
Test: optical tweezers (single-molecule ssDNA extension); self-association of A3G bound to force-melted lambda-DNA (ssDNA) held at 80 pN; 10 to 200 nM A3G flowed in; 10 mM HEPES, 50 mM Na+, pH 7.5, 21 °C; two-exponential fit of incubation curves, k2 = rate of oligomer formation at saturating binding
Settings: remark: other sources report otherwise

k2 (rate of oligomer formation on ssDNA): 0.007 s⁻¹
B1: APOBEC3G, wild type, Q9HC16 1-384 (enzyme)
chain: MKPHFRNTVERMYRDTFSYNFYNRPILSRRNTVWLCYEVKTKGPSRPPLDAKIFRGQVYSELKYHPEMRFFHWFSKWRKLHRDQEYEVTWYISWSPCTKCTRDMATFLAEDPKVTLTIFVARLYYFWDPDYQEALRSLCQKRDGPRATMKIMNYDEFQHCWSKFVYSQRELFEPWNNLPKYYILLHIMLGEILRHSMDPPTFTFNFNNEPWVRGRHETYLCYEVERMHNDTWVLLNQRRGFLCNQAPHKHGFLEGRHAELCFLDVIPFWKLDLDQDYRVTCFTSWSPCFSCAQEMAKFISKNKHVSLCIFTARIYDDQGRCQEGLRTLAEAGAKISIMTYSEFKHCWDTFVDHQGCPFQPWDGLDEHSQDLSGRLRAILQNQEN
